From patent US20260265403A1 (TJ BIOPHARMA SHANGHAI, published 2026)

T1: Human CD24 (human, UniProt P25063 27-59, limits assumed)
T1 chain (looked up): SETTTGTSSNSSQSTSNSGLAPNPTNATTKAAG

T2: human CD24 on cells (human, UniProt P25063 27-59)
T2 construct: whole, on cells; One molecule for all cell lines; the cell line is named under assay or readout; also called cell surface CD24; cell-based CD24
T2 chain (looked up): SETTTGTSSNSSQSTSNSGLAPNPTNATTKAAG


Legend:
Human CD24 [1] = molecular target: T1, Human CD24; test: affinity ranking; antibody as ligand, Human CD24 as analyte
human CD24 on cells [2] = molecular target: T2, human CD24 on cells; test: flow cytometry (GMFI), MCF-7 cells; EC50 table under the graphs
human CD24 on cells [3] = molecular target: T2, human CD24 on cells; test: flow cytometry (GMFI), SKOV3 cells; EC50 table under the graphs [Cont'd) B]
Human CD24 [4] = molecular target: T1, Human CD24; test: SPR, second 1:1 binding column set
Human CD24 [5] = molecular target: T1, Human CD24; test: SPR affinity ranking, 1:1 binding, analyte conc. 19.71 nM

| Kd (Human CD24 [1]) [nM] | koff (Human CD24 [1]) [s⁻¹] | kon (Human CD24 [1]) [M⁻¹ s⁻¹] | EC50 (human CD24 on cells [2]) [µg/mL] | EC50 (human CD24 on cells [3]) [µg/mL] | apparent Kd (pooled screen) (Human CD24 [4]) [nM] | apparent koff (pooled screen) (Human CD24 [4]) [s⁻¹] | apparent kon (pooled screen) (Human CD24 [4]) [M⁻¹ s⁻¹] | apparent Kd (pooled screen) (Human CD24 [5]) [nM] | apparent koff (pooled screen) (Human CD24 [5]) [s⁻¹] | apparent kon (pooled screen) (Human CD24 [5]) [M⁻¹ s⁻¹] | apparent Kd (pooled screen) (Human CD24 [1]) [nM] | apparent koff (pooled screen) (Human CD24 [1]) [s⁻¹] | apparent kon (pooled screen) (Human CD24 [1]) [M⁻¹ s⁻¹] | Binder |
| --- | --- | --- | --- | --- | --- | --- | --- | --- | --- | --- | --- | --- | --- | --- |
| 17.6 | 0.0169 | 958000 | 0.43 | 0.45 |  |  |  |  |  |  |  |  |  | VH1 + VL1 (humanized 4451) (antibody, V domains shown, IgG expressed in HEK293) VH: QVQLVQSGAEVKKPGASVKVSCKASGYDFTGYHMNWVRQAPGQGLEWMGEINPITSDKTFNQKFKSRVTMTRDTSISTAYMELSRLRSDDTAVYYCARRDYGTSLDYWGQGTTVTVSS VL: DIQLTQSPSFLSASVGDRVTITCRASKSISKYLAWYQQKPGKAPKLLIYAGSTLHSGVPSRFSGSGSGTEFTLTISSLQPEDFATYYCQQHNEYPITFGQGTKLEIK |
| 26 | 0.0294 | 1.13e+06 | 0.42 | 0.42 |  |  |  |  |  |  |  |  |  | VH3 + VL1 (humanized 4451) (antibody, V domains shown, IgG expressed in HEK293) VH: QVQLVQSGAEVKKPGASVKVSCKASGYDFTGYHMNWVRQAPGQGLEWIGEINPITSDKTFNQKFKSRATMTVDTSISTAYMELSRLRSDDTAVYYCARRDYGTSLDYWGQGTTVTVSS VL: DIQLTQSPSFLSASVGDRVTITCRASKSISKYLAWYQQKPGKAPKLLIYAGSTLHSGVPSRFSGSGSGTEFTLTISSLQPEDFATYYCQQHNEYPITFGQGTKLEIK |
| 23.8 | 0.027 | 1.13e+06 | 0.42 | 0.42 |  |  |  |  |  |  |  |  |  | VH3 + VL3 (humanized 4451) (antibody, V domains shown, IgG expressed in HEK293) VH: QVQLVQSGAEVKKPGASVKVSCKASGYDFTGYHMNWVRQAPGQGLEWIGEINPITSDKTFNQKFKSRATMTVDTSISTAYMELSRLRSDDTAVYYCARRDYGTSLDYWGQGTTVTVSS VL: DIQLTQSPSFLSASVGDRVTITCRASKSISKYLAWYQQKPGKAPKLLIYAGSTLHSGIPSRFRGSGSGTEFTLTISSLQPEDFATYYCQQHNEYPITFGQGTKLEIK |
| 19.4 | 0.023 | 1.18e+06 | 0.42 | 0.42 |  |  |  |  |  |  |  |  |  | VH2 + VL3 (humanized 4451) (antibody, V domains shown, IgG expressed in HEK293) VH: QVQLVQSGAEVKKPGASVKVSCKASGYDFTGYHMNWVRQAPGQGLEWIGEINPITSDKTFNQKFKSRVTMTVDTSISTAYMELSRLRSDDTAVYYCARRDYGTSLDYWGQGTTVTVSS VL: DIQLTQSPSFLSASVGDRVTITCRASKSISKYLAWYQQKPGKAPKLLIYAGSTLHSGIPSRFRGSGSGTEFTLTISSLQPEDFATYYCQQHNEYPITFGQGTKLEIK |
| 8.33 | 0.0128 | 1.54e+06 | 0.45 | 0.43 |  |  |  |  |  |  |  |  |  | VH4 + VL1 (humanized 4451) (antibody, V domains shown, IgG expressed in HEK293) VH: QVQLVQSGAEVKKPGASVKVSCKASGYDFTGYHMNWVKQAPGQGLEWIGEINPITSDKTFNQKFKSRATMTVDRSISTAYMELSRLRSDDTAVYYCARRDYGTSLDYWGQGTTVTVSS VL: DIQLTQSPSFLSASVGDRVTITCRASKSISKYLAWYQQKPGKAPKLLIYAGSTLHSGVPSRFSGSGSGTEFTLTISSLQPEDFATYYCQQHNEYPITFGQGTKLEIK |

More lines, now with the values behind:

| Binder | Kd (Human CD24 [1]) [nM] | koff (Human CD24 [1]) [s⁻¹] | kon (Human CD24 [1]) [M⁻¹ s⁻¹] | EC50 (human CD24 on cells [2]) [µg/mL] | EC50 (human CD24 on cells [3]) [µg/mL] | apparent Kd (pooled screen) (Human CD24 [4]) [nM] | apparent koff (pooled screen) (Human CD24 [4]) [s⁻¹] | apparent kon (pooled screen) (Human CD24 [4]) [M⁻¹ s⁻¹] | apparent Kd (pooled screen) (Human CD24 [5]) [nM] | apparent koff (pooled screen) (Human CD24 [5]) [s⁻¹] | apparent kon (pooled screen) (Human CD24 [5]) [M⁻¹ s⁻¹] | apparent Kd (pooled screen) (Human CD24 [1]) [nM] | apparent koff (pooled screen) (Human CD24 [1]) [s⁻¹] | apparent kon (pooled screen) (Human CD24 [1]) [M⁻¹ s⁻¹] |
| --- | --- | --- | --- | --- | --- | --- | --- | --- | --- | --- | --- | --- | --- | --- |
| VH + VL (4451 parental variable regions, Table 7) (antibody, V domains shown) VH: EVQLQQSGPELVKPGASVKISCKASGYDFTGYHMNWVKQSPEKSLEWIGEINPITSDKTFNQKFKSKATLTVDRSSSTAYMYLKSLTSEDSAVYYCARRDYGTSLDYWGQGTTLTVSS VL: DVQITQSPSYLAASPGETITIYCRASKSISKYLAWYQEKPEKTNRLLIYAGSTLHSGIPSRFRGSGSGKDFTLTVSGLEPEDFAMYYCQQHNEYPITFGAGTKLELK | 3.23 | 0.00937 | 2.9e+06 | 0.4 | 0.43 |  |  |  |  |  |  |  |  |  |
| VH1 + VL3 (4451H) (antibody, V domains shown, also called Antibody No 0; Parental) VH: QVQLVQSGAEVKKPGASVKVSCKASGYDFTGYHMNWVRQAPGQGLEWMGEINPITSDKTFNQKFKSRVTMTRDTSISTAYMELSRLRSDDTAVYYCARRDYGTSLDYWGQGTTVTVSS VL: DIQLTQSPSFLSASVGDRVTITCRASKSISKYLAWYQQKPGKAPKLLIYAGSTLHSGIPSRFRGSGSGTEFTLTISSLQPEDFATYYCQQHNEYPITFGQGTKLEIK |  |  |  | 0.39 | 0.44 | 25.1 | 0.0192 | 763000 | 172 | 0.0275 | 160000 | 23.1 | 0.0158 | 685000 |
| VH2 + VL1 (humanized 4451) (antibody, V domains shown, IgG expressed in HEK293) VH: QVQLVQSGAEVKKPGASVKVSCKASGYDFTGYHMNWVRQAPGQGLEWIGEINPITSDKTFNQKFKSRVTMTVDTSISTAYMELSRLRSDDTAVYYCARRDYGTSLDYWGQGTTVTVSS VL: DIQLTQSPSFLSASVGDRVTITCRASKSISKYLAWYQQKPGKAPKLLIYAGSTLHSGVPSRFSGSGSGTEFTLTISSLQPEDFATYYCQQHNEYPITFGQGTKLEIK | 20.9 | 0.0264 | 1.26e+06 | 0.45 | 0.45 |  |  |  |  |  |  |  |  |  |
| VH4 + VL3 (humanized 4451) (antibody, V domains shown, IgG expressed in HEK293) VH: QVQLVQSGAEVKKPGASVKVSCKASGYDFTGYHMNWVKQAPGQGLEWIGEINPITSDKTFNQKFKSRATMTVDRSISTAYMELSRLRSDDTAVYYCARRDYGTSLDYWGQGTTVTVSS VL: DIQLTQSPSFLSASVGDRVTITCRASKSISKYLAWYQQKPGKAPKLLIYAGSTLHSGIPSRFRGSGSGTEFTLTISSLQPEDFATYYCQQHNEYPITFGQGTKLEIK | 8.84 | 0.0119 | 1.34e+06 | 0.45 | 0.44 |  |  |  |  |  |  |  |  |  |
| VH1 + VL2 (humanized 4451) (antibody, V domains shown, IgG expressed in HEK293) VH: QVQLVQSGAEVKKPGASVKVSCKASGYDFTGYHMNWVRQAPGQGLEWMGEINPITSDKTFNQKFKSRVTMTRDTSISTAYMELSRLRSDDTAVYYCARRDYGTSLDYWGQGTTVTVSS VL: DIQLTQSPSFLSASVGDRVTITCRASKSISKYLAWYQQKPGKAPRLLIYAGSTLHSGVPSRFRGSGSGTEFTLTISSLQPEDFATYYCQQHNEYPITFGQGTKLEIK | 13.8 | 0.0239 | 1.74e+06 | 0.4 | 0.38 |  |  |  |  |  |  |  |  |  |
| VH3 + VL4 (humanized 4451) (antibody, V domains shown, IgG expressed in HEK293) VH: QVQLVQSGAEVKKPGASVKVSCKASGYDFTGYHMNWVRQAPGQGLEWIGEINPITSDKTFNQKFKSRATMTVDTSISTAYMELSRLRSDDTAVYYCARRDYGTSLDYWGQGTTVTVSS VL: DIQLTQSPSFLSASVGDRVTIYCRASKSISKYLAWYQQKPGKAPRLLIYAGSTLHSGIPSRFRGSGSGTEFTLTISSLQPEDFATYYCQQHNEYPITFGQGTKLEIK | 24.8 | 0.0163 | 655000 | 0.41 | 0.42 |  |  |  |  |  |  |  |  |  |
| VH4 + VL2 (humanized 4451) (antibody, V domains shown, IgG expressed in HEK293) VH: QVQLVQSGAEVKKPGASVKVSCKASGYDFTGYHMNWVKQAPGQGLEWIGEINPITSDKTFNQKFKSRATMTVDRSISTAYMELSRLRSDDTAVYYCARRDYGTSLDYWGQGTTVTVSS VL: DIQLTQSPSFLSASVGDRVTITCRASKSISKYLAWYQQKPGKAPRLLIYAGSTLHSGVPSRFRGSGSGTEFTLTISSLQPEDFATYYCQQHNEYPITFGQGTKLEIK | 9 | 0.0115 | 1.28e+06 | 0.44 | 0.43 |  |  |  |  |  |  |  |  |  |
| VH3 + VL2 (humanized 4451) (antibody, V domains shown, IgG expressed in HEK293) VH: QVQLVQSGAEVKKPGASVKVSCKASGYDFTGYHMNWVRQAPGQGLEWIGEINPITSDKTFNQKFKSRATMTVDTSISTAYMELSRLRSDDTAVYYCARRDYGTSLDYWGQGTTVTVSS VL: DIQLTQSPSFLSASVGDRVTITCRASKSISKYLAWYQQKPGKAPRLLIYAGSTLHSGVPSRFRGSGSGTEFTLTISSLQPEDFATYYCQQHNEYPITFGQGTKLEIK | 23.7 | 0.0262 | 1.1e+06 | 0.52 | 0.52 |  |  |  |  |  |  |  |  |  |
| VH1 + VL4 (humanized 4451) (antibody, V domains shown, IgG expressed in HEK293) VH: QVQLVQSGAEVKKPGASVKVSCKASGYDFTGYHMNWVRQAPGQGLEWMGEINPITSDKTFNQKFKSRVTMTRDTSISTAYMELSRLRSDDTAVYYCARRDYGTSLDYWGQGTTVTVSS VL: DIQLTQSPSFLSASVGDRVTIYCRASKSISKYLAWYQQKPGKAPRLLIYAGSTLHSGIPSRFRGSGSGTEFTLTISSLQPEDFATYYCQQHNEYPITFGQGTKLEIK | 15 | 0.0241 | 1.61e+06 | 0.4 | 0.43 |  |  |  |  |  |  |  |  |  |
